Data as given in patent US20240181022A1, “AMURINS LYSINS, AND LYSIN-ANTIMICROBIAL PEPTIDE (AMP) CONSTRUCTS ACTIVE AGAINST GRAM-NEGATIVE BACTERIA” (priority 2021, published 2024).
Where no end group is shown, it is not given here.

Assays:
[1] = tested on: E. cloacae; assay: Checkerboard synergy assay (FICI) against E. cloacae; format: cell-based, Enterobacter cloacae; conditions: E. cloacae ATCC 13047
Description: (§1) Any known method to assess MIC may be used.
(§2) Checkerboards are constructed by first preparing columns of e.g., a 96-well polypropylene microtiter plate, wherein each well has the same amount of antibiotic diluted 2-fold along the horizontal axis. […] Bacteria are added to the drug combinations at concentrations of 1×10^5 […] in CAA, for example, with or without human serum or pulmonary surfactant. […] Summation fractional inhibitory concentrations (ΣFICs) are calculated for each drug and the minimum ΣFIC value (ΣFICmin) is used to determine the effect of the Chp peptide/antibiotic combination.
(§3) GN370 was further tested in combination with up to seven additional antibiotics (in addition to meropenem) against a variety of bacterial strains, including P. aeruginosa, A. baumannii, E. coli, E. cloacae, and K. pneumoniae. GN370 and the subject antibiotics were tested in a checkerboard assay format, and FICI values were determined, wherein ≤0.5 indicates synergy, >0.5-≤1 indicates additive; and >1 indicates indifferent.

[2] = tested on: A. baumannii; assay: Checkerboard synergy assay (FICI) against A. baumannii; format: cell-based, Acinetobacter baumannii; conditions: A. baumannii ATCC BAA-747
Description: as §1, §2, §3

[3] = tested on: A. xylosoxidans; assay: Serial passage resistance development study, A. xylosoxidans; format: cell-based, Achromobacter xylosoxidans; conditions: A. xylosoxidans, day 28
[4] = tested on: Salmonella senftenberg; assay: MIC by broth microdilution against Salmonella senftenberg; format: cell-based; conditions: N 1
Description: (§4) MIC values were determined by broth microdilution against clinical isolates and resistant isolates from a wide range of bacterial species, including isolates from the CDC Antibiotic Resistance bank, including the GN ESKAPE pathogens and E. coli, including carbapenem-resistant Enterobacteriaciae, Acinetobacter, and Pseudomonas.

[5] = tested on: A. baumannii; assay: GN370 time-kill assay, A. baumannii; format: cell-based, Acinetobacter baumannii; conditions: for Log10 CFU/mL: A. baumannii ATCC BAA 747
Description: (§5) A kinetic analysis of GN370 bactericidal activity was performed using a time-kill assay format in which CFU reductions of each target organism (P. aeruginosa, K. pneumoniae, A. baumannii, E. coli, and E. cloacae) were measured over 24 hours at 37° C. […] Bactericidal activity was defined as CFU reductions of ≥3-log 10 CFU/mL as compared to the inoculum at the 24-hour time point.

[6] = tested on: Burkholderia cepacia; assay: MIC by broth microdilution against Burkholderia cepacia; format: cell-based; conditions: N 9
Description: as §4

[7] = tested on: E. cloacae; assay: GN370 time-kill assay, E. cloacae; format: cell-based, Enterobacter cloacae; conditions: for Log10 CFU/mL: E. cloacae ATCC 29941
Description: as §5

[8] = tested on: A. baumannii; assay: MIC by broth microdilution against A. baumannii; format: cell-based, Acinetobacter baumannii
[9] = tested on: E. coli; assay: GN370 time-kill assay, E. coli; format: cell-based, Escherichia coli; conditions: for Log10 CFU/mL: E. coli AR-128
Description: as §5, with “point. See Methods for Determining Bactericidal Activity of Antimicrobial Agents; Approved Guideline, NCCLS document M26-A, CLSI 1999 (Wayne, PA).” for “point.”

[10] = tested on: Citrobacter freundii; assay: MIC by broth microdilution against Citrobacter freundii; format: cell-based; conditions: N 2
Description: as §4

[11] = tested on: Kluyvera ascorbate; assay: MIC by broth microdilution against Kluyvera ascorbate; format: cell-based; conditions: N 1
Description: as §4

[12] = tested on: Gram-negative bacteria biofilm; assay: Antibiofilm activity (MBEC) against Gram-negative bacteria, incl. MDR and XDR isolates; format: cell-based; conditions: range of MDR and XDR isolates
[13] = tested on: E. coli; assay: MIC by broth microdilution against E. coli; format: cell-based, Escherichia coli
[14] = tested on: K. pneumoniae; assay: MIC by broth microdilution against K. pneumoniae; format: cell-based, Klebsiella pneumoniae
[15] = tested on: K. pneumoniae (1_1_5 HM-44); assay: microbe, parasite or virus in culture; format: cell-based, Klebsiella pneumoniae
[16] = Acinetobacter baumannii, AR Bank, N 41
[17] = Acinetobacter baumannii, Weill Cornell, N 26
[18] = Acinetobacter baumannii, all isolates, N 67
[19] = Escherichia coli, AR Bank, N 17
[20] = Escherichia coli, Weill Cornell, N 13
[21] = Escherichia coli, all isolates, N 30
[22] = Klebsiella pneumoniae, AR Bank, N 32
[23] = Klebsiella pneumoniae, Weill Cornell, N 9
[24] = Klebsiella pneumoniae, all isolates, N 41

C[C@@H](O)[C@H]1C(=O)N2C(C(=O)O)=C(S[C@@H]3CN[C@H](C(=O)N(C)C)C3)[C@H](C)[C@H]12 [meropenem, reference compound]
FICI of the antibiotic with GN370 [1]: 0.531
FICI of the antibiotic with GN370 [2]: 0.5

MRLKMARRRYRLPRRRSRRLFSRTALRMHPRNRLRRIMRGGIRF [AM1]
change in MIC over serial passage [3]: no increase in the MICs

B1: GN370: lysin-AMP construct, SEQ ID NO: 149: MIDR, FIRL and NPTH moieties N-terminal to GN202 lysin (protein)
chain: MIDRFIRLNPTHGPRRPRRPGRRAPVRTSQRGIDLIKSFEGLRLSAYQDSVGVWTIGYGTTRGVTRYMTITVEQAERMLSNDIQRFEPELDRLAKVPLNQNQWDALMSFVYNLGAANLASSTLLDLLNKGDYQGAADQFPHWVNAGGKRLDGLVKRRAAERALFLEPLS
modifications: GN370 lysin
MIC Range [4]: 2 µg/mL
Log10 CFU/mL ([5]; 0.2x MIC, 1 hr): 3.8 Log10 CFU/mL
Log10 CFU/mL ([5]; 0.2x MIC, 3 hr): 4.0 Log10 CFU/mL
Log10 CFU/mL ([5]; 0.2x MIC, 24 hr): 5.8 Log10 CFU/mL
Log10 CFU/mL ([5]; 1x MIC, 1 hr): 1.5 Log10 CFU/mL
Log10 CFU/mL ([5]; 1x MIC, 3 hr): 1.5 Log10 CFU/mL
Log10 CFU/mL ([5]; 1x MIC, 24 hr): 1.5 Log10 CFU/mL
Log10 CFU/mL ([5]; 2x MIC, 1 hr): 1.5 Log10 CFU/mL
Log10 CFU/mL ([5]; 2x MIC, 3 hr): 1.5 Log10 CFU/mL
Log10 CFU/mL ([5]; 2x MIC, 24 hr): 1.5 Log10 CFU/mL
Log10 CFU/mL ([5]; 5x MIC, 1 hr): 1.5 Log10 CFU/mL
Log10 CFU/mL ([5]; 5x MIC, 3 hr): 1.5 Log10 CFU/mL
Log10 CFU/mL ([5]; 5x MIC, 24 hr): 1.5 Log10 CFU/mL
concentration with bactericidal activity (≥3-log 10 CFU/mL reduction at 24 hours) ([5]; A. baumannii, 37° C.): ≥ 1 ×MIC
MIC50 [6]: >64 µg/mL
MIC90 [6]: >64 µg/mL
MIC Range [6]: >64 µg/mL
Log10 CFU/mL ([7]; 0.2x MIC, 1 hr): 5.0 Log10 CFU/mL
Log10 CFU/mL ([7]; 0.2x MIC, 3 hr): 5.0 Log10 CFU/mL
Log10 CFU/mL ([7]; 0.2x MIC, 24 hr): 9.0 Log10 CFU/mL
Log10 CFU/mL ([7]; 1x MIC, 1 hr): 2.4 Log10 CFU/mL
Log10 CFU/mL ([7]; 1x MIC, 3 hr): 1.5 Log10 CFU/mL
Log10 CFU/mL ([7]; 1x MIC, 24 hr): 2.3 Log10 CFU/mL
Log10 CFU/mL ([7]; 2x MIC, 1 hr): 1.6 Log10 CFU/mL
Log10 CFU/mL ([7]; 2x MIC, 3 hr): 1.6 Log10 CFU/mL
Log10 CFU/mL ([7]; 2x MIC, 24 hr): 1.6 Log10 CFU/mL
Log10 CFU/mL ([7]; 5x MIC, 1 hr): 1.5 Log10 CFU/mL
Log10 CFU/mL ([7]; 5x MIC, 3 hr): 1.5 Log10 CFU/mL
Log10 CFU/mL ([7]; 5x MIC, 24 hr): 1.5 Log10 CFU/mL
concentration with bactericidal activity (≥3-log 10 CFU/mL reduction at 24 hours) ([7]; E. cloacae, 37° C.): ≥ 1 ×MIC
MIC ([8]; A. baumannii ATCC BAA 747 (Table 27)): (MIC = 1 μg/mL)
MIC ([8]; A. baumannii ATCC BAA-747 (head of Table 19)): 1 µg/mL
MIC90 ([8]; A. baumannii clinical and resistant isolates): 1 µg/mL
MIC50 [8, 16]: 1 µg/mL
MIC90 [8, 16]: 1 µg/mL
MIC Range [8, 16]: 0.064 to 2 µg/mL
MIC50 [8, 17]: 1 µg/mL
MIC90 [8, 17]: 1 µg/mL
MIC Range [8, 17]: 0.25 to 1 µg/mL
MIC50 [8, 18]: 1 µg/mL
MIC90 [8, 18]: 1 µg/mL
MIC Range [8, 18]: 0.0625 to 2 µg/mL
Log10 CFU/mL ([9]; 0.2x MIC, 24 hr): 8.4 Log10 CFU/mL
Log10 CFU/mL ([9]; 1x MIC, 1 hr): 4.4 Log10 CFU/mL
Log10 CFU/mL ([9]; 1x MIC, 3 hr): 2.5 Log10 CFU/mL
Log10 CFU/mL ([9]; 2x MIC, 1 hr): 4.4 Log10 CFU/mL
Log10 CFU/mL ([9]; 2x MIC, 3 hr): 2.2 Log10 CFU/mL
Log10 CFU/mL ([9]; 5x MIC, 1 hr): 3.0 Log10 CFU/mL
concentration with bactericidal activity (≥3-log 10 CFU/mL reduction at 24 hours) ([9]; E. coli, 37° C.): ≥ 1 ×MIC
MIC Range [10]: 0.5 to 2 µg/mL
MIC Range [11]: 1 µg/mL
MBEC [12]: ≤ 4 µg/mL
MIC ([13]; E. coli AR-128): (MIC = 0.25 μg/mL)
MIC ([13]; E. coli ATCC 25922 (head of Table 19)): 0.5 µg/mL
MIC90 ([13]; E. coli clinical and resistant isolates): 1 µg/mL
MIC50 [13, 19]: 0.5 µg/mL
MIC90 [13, 19]: 1 µg/mL
MIC Range [13, 19]: 0.125 to 1 µg/mL
MIC50 [13, 20]: 0.25 µg/mL
MIC90 [13, 20]: 0.5 µg/mL
MIC Range [13, 20]: 0.064 to 4 µg/mL
MIC50 [13, 21]: 0.25 µg/mL
MIC90 [13, 21]: 1 µg/mL
MIC Range [13, 21]: 0.0625 to 4 µg/mL
MIC ([14]; K. pneumoniae ATCC 700603): (MIC = 4 μg/mL)
MIC ([14]; K. pneumoniae HM-44 (head of Table 19)): 4 µg/mL
MIC90 ([14]; K. pneumoniae clinical and resistant isolates): 4 µg/mL
MIC50 [14, 22]: 1 µg/mL
MIC90 [14, 22]: 4 µg/mL
MIC Range [14, 22]: 0.125 to 4 µg/mL
MIC50 [14, 23]: 2 µg/mL
MIC90 [14, 23]: 4 µg/mL
MIC Range [14, 23]: 0.25 to 4 µg/mL
MIC50 [14, 24]: 2 µg/mL
MIC90 [14, 24]: 4 µg/mL
MIC Range [14, 24]: 0.125 to 4 µg/mL
MIC ([15]; K. pneumoniae 1_1_5_HM-44, target organism of serial passage study): 2 µg/mL
change in MIC over 28-day serial passage ([15]; K. pneumoniae (1_1_5 HM-44)): ≤ 2 fold
change in MIC over 28-day serial passage ([15]; K. pneumoniae, another instance): no change
